Assay results reported in the RNAGym collection of RNA variant scans (doi:10.1073/pnas.2313332121).

B1: TPR t1 (parent)
chain: GACCAAUCUGCCCUCAGAGCUCGAGAACAUCUUCGGAUGCAGAGGAGGCAGGCUUCGGUGGCGCGAUAGCGCCAACGUCCUCAACCUCCAAUGCAUCCCACCACAUGAUGAUGCCUGAAGAGCCUUGGUUUUUUG

Variants of: B1
Experiment: polymerase ribozyme fitness, log enrichment relative to wild type (log ratio); higher = more active; in vitro selection for triplet polymerase activity
Outline: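 Mutant libraries of both subunits of a heterodimeric triplet polymerase ribozyme were PCR-built, transcribed, and selected once in triplicate, with frozen incubation at −7 °C and capture of gel-excised extended constructs on streptavidin beads before RT-PCR. Illumina sequencing of input and output libraries was filtered to genotypes with ≥10 input reads and ≥1 read per output. Fitness is the logarithm of genotype enrichment over wild-type enrichment, using inverse-variance-weighted replicate averages. The logarithm is base 2.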

Variant	polymerase ribozyme fitness (log ratio)
GACCAAUCUGCCCUCAGAGCUCGAGAACAUCUUCGGAUGCAGAGGAGGCAGGCUUCGGUGCCGCGAUAGCGCCAACGUCGUCAACCUCCAAUGCAUCCCACCACAUGAUGAUGCCUCAAGAGCCUUGGUUUUUUG	-7.35
GACCAAUCUGCCCUCAGAGCUCGAGAACAUCUUCGGAUGCAGAGGAGGCAGGCUUCGGUGACGCGAUAGCGCCAACGUCCUCAACCUCCAAUGCAUCCCACCACAUGAUGAGGCCUGAAUACCCUUGGUUUUUUG	-1.64
GACCAAUCUGCCCUCAGAGCUCGAGAACAUCUUCGGAUGCAGAGGAGGCAGGCUUCGGUGCCGCGAUAGCGCCAACGUCCUCAACCUCCAAUGCAUCCCACCAUAUGAUAAUGCCUGAAGAGCCUUGGUUUUUUG	-2.86
GACCAAUCUGCCCUCAGAGCUCGAGAACAUCUUCGGAUGCAGAGGAGGCAGGCUUCGGUGCCGCGAUAGCGCCAACGUCCUCAACCUCCAAUGGAUCCCACCACAUGAUGAUGCCUGAAGAGCCUUGGUUUUUUG	-2.92
GACCAAUCUGCCCUCAGAGCUCGAGAACAUCUUCGGAUGCAGAGGAGGCAGGCUUCGGUGCCGCGAUAGCGCCAACGUCCUCAACCUCCAAUGUAUCCCACCACAUGAUGAUGCCUGAAGAGCCUUGGUUUUUUG	-1.25
GACCAAUCUGCCCUCAGAGCUCGAGAACAUCUUCGGAUGCAGAGGAGGCAGGCUUCGGUGCCGCGAUAGCGCCAACGUCCUCAACCUCCUAUACAUCCCACCACAUGAUGAUGCCUGAAGAGCCUUGGUUUUUUG	-4.85
GACCAAUCUGCCCUCAGAGCUCGAGAACAUCUUCGGAUGCAGAGGAGGCAGGCUUCGGUGACGCGAUAGCGCCAACGUCCUCAACCUCCAAUGCAUCCCACCACAUGAUGAUGCCUGAAGAGCCUUGGUUUUAUG	-0.418
GACCAAUCUGCCCUCAGAGCUCGAGAACAUCUUCGGAUGCAGAGGAGGCAGGCUUCGGUGACGCGAUAGCGCCAACGGCCUCAUCAUCCAAUGCAUCCCACCACAUGAUGAUGCCUGAAGAGCCUUGGUUUUUUG	-1.71
GACCAAUCUGCCCUCAGAGCUCGAGAACAUCUUCGGAUGCAGAGGAGGCAGGCUUCGGUGACGCGAUAGCGCCAACGGCCUCAAUCUCCCAUGCAUCCCACCACAUGAUGAUGCCUGAAGAGCCUUGGUUUUUUG	-2.22
GACCAAUCUGCCCUCAGAGCUCGAGAACAUCUUCGGAUGCAGAGGAGGCAGGCUUCGGUGCCGCGAUAGCGCCAACGUCCUCCACCUCUAAUGCAUCCCACCACAUGAUGAUGCCUGAAGAGCCUUGGUUUUUUG	-2.95
GACCAAUCUGCCCUCAGAGCUCGAGAACAUCUUCGGAUGCAGAGGAGGCAGGCUUCGGUGCCGCGAUAGCGCCAACGUCCUCGACCUCCAAUGCAUCCCACCACAUGAUGAUGCCUGAAGAGCCUUGGUUUUUUG	-3.02
GACCAAUCUGCCCUCAGAGCUCGAGAACAUCUUCGGAUGCAGAGGAGGCAGGCUUCGGUGCCGCGAUAGCGCCAACGUCCUCAAUCUCCAAUGCAUCCCACCACAUGAUGAUGCCAGAAGAGUCUUGGAUUUUUG	-6.64
GACCAAUCUGCCCUCAGAGCUCGAGAACAUCUUCGGAUGCAGAGGAGGCAGGCUUCGGUGCCGCGAUAGCGCCAACGUCCUCAACCUCCAAUGCAUCCCACCACAUGAUGAUGCCUGAAGAGGCUUGGUUUUUUG	0.189
GACCAAUCUGCCCUCAGAGCUCGAGAACAUCUUCGGAUGCAGAGGAGGCAGGCUUCGGUGCCGCGAUAGCGCCAAUGUCCUCAACCUCCAAUGCAUCCCACCACAUGAUGAUGCCUGAAGAGCCUUGGUUUUUUG	-3.1
GACCAAUCUGCCCUCAGAGCUCGAGAACAUCUUCGGAUGCAGAGGAGGCAGGCUUCGGUGCCGCGAUAGCGCCAACGUCCUCAACCUCCAAUGCAUCCCACCACAUGAUGAUGCCUGAAGAGCCUUGGUUUUUUG	-1.63
GACCAAUCUGCCCUCAGAGCUCGAGAACAUCUUCGGAUGCAGAGGAGGCAGGCUUCGGUGCCGCGAUAGCGCCAACGUCCUCAACCUCCAAUGCAUCCCACCACAUGAUGAUGCCUGAAGAGCGUUGGUUUUUUG	-0.476
GACCAAUCUGCCCUCAGAGCUCGAGAACAUCUUCGGAUGCAGAGGAGGCAGGCUUCGGUGCCGCGAUAGCGCCAACGUCCUCAACCUCCAAUGUAUCCCACCACAUGAUGAUGCCUGAAGAGCCUUGGUAGUUUG	-3.54
GACCAAUCUGCCCUCAGAGCUCGAGAACAUCUUCGGAUGCAGAGGAGGCAGGCUUCGGUGCCGCGAUAGCGCCAACGUUCUCAACCUCCAAUGCAUCCCAGCACAUGAUGAUGCCUGAAGAGCCUUGGUUUUUUG	-1.64
GACCAAUCUGCCCUCAGAGCUCGAGAACAUCUUCGGAUGCAGAGGAGGCAGGCUUCGGUGCCGCGAUAGCGCCAACGUCCUCAACCUCCAAUGCAUCCCACCAUAUGAUGCUGCCUGAAGAGCCUUGGUUUUUUG	-1.59
GACCAAUCUGCCCUCAGAGCUCGAGAACAUCUUCGGAUGCAGAGGAGGCAGGCUUCGGUGCCGCGAUAGCGCCCACGUCCUCAAUCUCCAAUGCAUCCCACCACAUGAUGAUGCCUGAAGAGCCUUGGUUUUUUG	-5.35
GACCAAUCUGCCCUCAGAGCUCGAGAACAUCUUCGGAUGCAGAGGAGGCAGGCUUCGGUGCCGCGAUAGCGCCAACGUCCUCAACCUCCAAUGCAUUCCACCACAUGAUGAUGCCUGAAGAGCCUUGGUUUUUUG	-2.51

Variant	polymerase ribozyme fitness (log ratio)
GACCAAUCUGCCCUCAGAGCUCGAGAACAUCUUCGGAUGCAGAGGAGGCAGGCUUCGGUGACGCGAUAGCGCCAACGUCCUCAACCUCCAAUGCAUCCCACCACAUGAUGAUGCCAGAAGAGCCUUGGUUUUUUG	-2.68
GACCAAUCUGCCCUCAGAGCUCGAGAACAUCUUCGGAUGCAGAGGAGGCAGGCUUCGGUGCCGCGAUAGCGCUAACGUCCUCAAUCUCCAAUGCAUCCCACCACAUGAUGAUGCCUAAAGAGCCUUGGCUUUUUG	-5.49
GACCAAUCUGCCCUCAGAGCUCGAGAACAUCUUCGGAUGCAGAGGAGGCAGGCUUCGGUGACGCGAUAGCGCCAACGUCCUCAACCUCCAAUGCAUCCCACCACAUGAUGAAGCCUGAAGAGCUUUGGUUUUUUG	1.83
GACCAAUCUGCCCUCAGAGCUCGAGAACAUCUUCGGAUGCAGAGGAGGCAGGCUUCGGUGACGCGAUAGCGCCAACGUCCUCAACCUCCAAUGCAUCCCACCACAUGACGAUGCCUGAAGAGCCUUGGUUUUUUG	-2.02
GACCAAUCUGCCCUCAGAGCUCGAGAACAUCUUCGGAUGCAGAGGAGGCAGGCUUCGGUGACGCGAUAGCGCCAACGUCCUCAACCUCCAAUGCAUCCCACCACAUGAAGAUGCCUGAAGAGCCUUGGUUUUUUG	-5.19
GACCAAUCUGCCCUCAGAGCUCGAGAACAUCUUCGGAUGCAGAGGAGGCAGGCUUCGGUGACGCGAUAGCGCCAACGUCCUCAACCUCCAAUGCAUCCCACCACAUGAUGAAGCCUGAAGAGCCUUGGUUUUUUG	1.31
GACCAAUCUGCCCUCAGAGCUCGAGAACAUCUUCGGAUGCAGAGGAGGCAGGCUUCGGUGACGCGAUAGCGCCAACGUCCUCAACCUCCAAUGCAUCCCACCACAUGAUGAGGCCUGAAGAGCCUUGGUUUUUUG	0.603
GACCAAUCUGCCCUCAGAGCUCGAGAACAUCUUCGGAUGCAGAGGAGGCAGGCUUCGGUGACGCGAUAGCGCCAACGUCCUCAACCUCCAAUGCAUCCCACCACAUGAUGAUGCCGGAAGAGCCUUGCUUUUUUG	-4.66
GACCAAUCUGCCCUCAGAGCUCGAGAACAUCUUCGGAUGCAGAGGAGGCAGGCUUCGGUGCCCCGAUAGCGCCAACGUCCUCAACCUCCAAUGCAUCCCACCACAUGAUGAUGCCUGAAGAGCCUUGGUUUUUUG	-3.6
GACCAAUCUGCCCUCAGAGCUCGAGAACAUCUUCGGAUGCAGAGGAGGCAGGCUUCGGUGACGCGAUAGCGCCAACGCCCUCAAUCUCCAAUGCACCCCAUCACAUGAGGAUGCCUGAAGAGCCUUGGUUUUUUG	-5.66
GACCAAUCUGCCCUCAGAGCUCGAGAACAUCUUCGGAUGCAGAGGAGGCAGGCUUCGGUGCCGCGAUAGCGCCAACGUCCUCAACCUCUAAUGCAUCCCACCACAUGAUGAUCCCUGAACAGCCUUGGUUUUUUG	-4.9
GACCAAUCUGCCCUCAGAGCUCGAGAACAUCUUCGGAUGCAGAGGAGGCAGGCUUCGGUGACGCGAUAGCGCCAACGUCCGCAACCUCCAAUGCAUCCCACCACUUGAUGAGGCCUGAAGAGCCUUGGUUUUUUG	-5.6
GACCAAUCUGCCCUCAGAGCUCGAGAACAUCUUCGGAUGCAGAGGAGGCAGGCUUCGGUGCCGCGAUAGCGCCAACGUCCUCAACCUCGAAUGCAUCCCACCACAUGAUGAUUCCUGAAGAGCCUUGGUUUUCUG	-4.45
GACCAAUCUGCCCUCAGAGCUCGAGAACAUCUUCGGAUGCAGAGGAGGCAGGCUUCGGUGCCGCGAUAGCGCCAACGUCCUCAACCUCAAAUGCAUCCCACCACAUGAUGAUGCCUGAAGAGCCUUGGUUUCUUG	-3.89
GACCAAUCUGCCCUCAGAGCUCGAGAACAUCUUCGGAUGCAGAGGAGGCAGGCUUCGGUGCCGCGAUAGCGCCAACGUCCUCAACCUCCAAUGCAUCCCACCAAAUGAUGAUGCCUGAAGAGCCUUGGUUUUUUG	-3.92
GACCAAUCUGCCCUCAGAGCUCGAGAACAUCUUCGGAUGCAGAGGAGGCAGGCUUCGGUGCCGCGAUAGCGCCAACGUCCUUAACCUCCAAUGCAUCCCACCACAUGAUGAUGCCUGAAGAGCCUUGGUUUUUUG	-1.83
GACCAAUCUGCCCUCAGAGCUCGAGAACAUCUUCGGAUGCAGAGGAGGCAGGCUUCGGUGACGCGAUAGCGCCAACGGCCUCAACCUCCAAUGCAUCCCACCACAUGAUGAUGCCUGAAAAGCCUUGGUUUUUUG	0.458
GACCAAUCUGCCCUCAGAGCUCGAGAACAUCUUCGGAUGCAGAGGAGGCAGGCUUCGGUGACGCGAUAGCGCCAACGUCCUCAACCUCCAAUGCAUCCCACCACAUGAUGAUGCCUGAAGAGCCUUGGUCUUUUG	0.204
GACCAAUCUGCCCUCAGAGCUCGAGAACAUCUUCGGAUGCAGAGGAGGCAGGCUUCGGUGCCGCGAUAGCGCCAACGUCCUCAACCUCCAAUGCAUCUCACCACAUGAUGAUGCCUGAAGAGGCUUGGUUUUAUU	-1.22
GACCAAUCUGCCCUCAGAGCUCGAGAACAUCUUCGGAUGCAGAGGAGGCAGGCUUCGGUGCCGCGAUAGCGCCAACGUCCUCAACCUCCAAUGCAUCCCACCACAUGAUGAUGUCUGAAGAGCCUUGGUUUUUUG	-4
GACCAAUCUGCCCUCAGAGCUCGAGAACAUCUUCGGAUGCAGAGGAGGCAGGCUUCGGUGACGCGAUAGCGCCAACGUCCUCAACCUCCAAAGCAUCCCACCACAUGAUGAUGCCUGAAGAGACUUUGUUUUUUG	-1.55
